In PMC7046344 one finds other: myc/FLAG ratio data, which are given here for two molecules.

Assay [1] addresses Spn-F-FLAG (UniProt Q9V9Y9). Kind of assay: co-immunoprecipitation (IP anti-FLAG, IB myc, band ratio by ImageJ). The conditions noted are these: lysates of S2 cells co-expressing SpnF-FLAG and myc-Rab11; parent: 1.
The target of assay [2] is T1, Spn-F-FLAG, Q9V9Y9.
T1 chain: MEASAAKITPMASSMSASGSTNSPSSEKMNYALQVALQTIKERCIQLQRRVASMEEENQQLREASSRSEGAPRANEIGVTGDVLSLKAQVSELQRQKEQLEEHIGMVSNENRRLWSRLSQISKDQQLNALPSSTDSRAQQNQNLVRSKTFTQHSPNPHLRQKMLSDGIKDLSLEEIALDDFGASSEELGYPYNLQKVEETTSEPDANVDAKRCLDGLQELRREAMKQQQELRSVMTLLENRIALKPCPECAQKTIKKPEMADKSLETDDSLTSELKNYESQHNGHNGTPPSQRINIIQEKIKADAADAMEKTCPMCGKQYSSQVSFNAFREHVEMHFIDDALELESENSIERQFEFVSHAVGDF
The assay is described as above. The conditions noted are these: chain shown with the change; lysates of S2 cells co-expressing SpnF-FLAG and myc-Rab11; parent: 1.

myc-Rab11 (from UniProt O18335) CA: the other: myc/FLAG ratio in assay [1] amounted to 0.14.

B1: myc-Rab11, O18335 S25N (protein)
chain: MGAREDEYDYLFKVVLIGDSGVGKNNLLSRFTRNEFNLESKSTIGVEFATRSIEVDGKTIKAQIWDTAGQERYRAITSAYYRGAVGALLVYDIAKHLTYENVERWLRELRDHADQNIVIMLVGNKSDLRHLRSVPTDEAKLFAERNGLSFIETSALDSTNVETAFQNILTEIYRIVSQKQIRDPPEGDVIRPSNVEPIDVKPTVTADVRKQCCQ
For B1, the other: myc/FLAG ratio in assay [2] came to 1.07.
